Among the data in patent US20220226425A1, “METHOD OF TREATING MELANOCORTIN-4 RECEPTOR PATHWAY-ASSOCIATED DISORDERS” (RHYTHM PHARMACEUTICALS, INC., priority 2015, published 2022) are EC-50 (nM), cAMP accumulation values, retold here.

In this assay the target is melanocortin 5 receptor (human) (UniProt P33032). Kind of assay: cell-based or functional assay.
melanocortin 5 receptor (human), sequence (P33032 whole entry): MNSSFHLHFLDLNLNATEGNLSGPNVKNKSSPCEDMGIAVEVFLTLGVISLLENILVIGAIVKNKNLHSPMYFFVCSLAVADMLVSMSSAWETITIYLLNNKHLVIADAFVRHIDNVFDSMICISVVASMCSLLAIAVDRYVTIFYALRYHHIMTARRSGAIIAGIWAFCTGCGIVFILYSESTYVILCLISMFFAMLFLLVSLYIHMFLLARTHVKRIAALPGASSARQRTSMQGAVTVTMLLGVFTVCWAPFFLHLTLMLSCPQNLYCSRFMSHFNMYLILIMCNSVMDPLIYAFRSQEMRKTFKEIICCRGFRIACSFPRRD

In the case of RM-493 (peptide), the EC-50 (nM), cAMP accumulation stood at 1680 nM.
